# Literature values as cited in article PMC3514653 (Neuromodulation : journal of the International …, 2012).
# B1: BDNF: large growth factor (27 KDa); recombinant-methionyl human brain-derived neurotrophic factor (protein, UniProt P23560 19-247, looked up)
# Neurotrophic factor BDNF …: APMKEANIRGQGGLAYPGVRTHGTLESVNGPKAGSRGLTSLADTFEHVIEELLDEDQKVRPNEENNKDADLYTSRVMLSSQVPLEPPLLFLLEEYKNYLDAANMSMRVRRHSDPARRGELSVCDSISEWVTAADKKTAVDMSGGTVTVLEKVPVSKGQLKQYFYETKCNPMGYTKEGCRGIDKRHWNSQCRTTQSYVRALTMDSKKRIGWRFIRIDTSCVCTLTIKRGR
# modifications: N-terminal methionine
# Settings: dog, in vivo; cited from earlier work
molecule,measurement,value
B1,Clearance from the CSF (half-life),42 min
